Molecular target: T1, human 4-1BB (Homo sapiens, UniProt Q07011)
T1 construct: host or cells: 4-1BB reporter cells of the Promega bioassay, alone or co-cultured with tumor cells (A549, MDA-MB-231, CT26, PC3, SKOV3)
Assay: 4-1BB activation, inducible reporter cell system with or without tumor cells
Type: cell-based
Details: reporter cells alone or co-cultured with A549 tumor cells; 5 hours
Experimental: After confirming that they retained the ability to bind to PC3 cells, the EphA2-4-1BB bispecific antibodies were assayed for their ability to activate human 4-1BB using an inducible reporter cell system (Promega cat JA2351). […] reporter cells were either cultured alone with the EphA2-4-1BB bispecific antibodies or co-cultured with A549 tumor cells that had been treated with the EphA2-4-1BB bispecific antibodies. The 4-1BB antibody Urelumab (AB-009811) was included as a non-tumor targeting control. After 5 hours of culture, 4-1BB activation was determined from the reporter cells by measuring bioluminescence output.
The activation assay was repeated using MDA-MB-231, CT26, or PC3 tumor cells. […] FIG. 19A-D.
Constructs that comprise AB-008873 fused with h41BBL (THD)3-2 were generated and assayed for the ability to activate 4-1BB for tumor cell lines A549, MDA-MB231, SKOV3, and PC3, as described above for the EphA2-4-1BB bispecific antibodies. AB-009811 was included as a positive control and 5554-41BBL (THD) 3-10 or 5554-41BBL (THD) 3-2 was used as a negative control. […] FIG. 19E.

T1 sequence (Q07011 24-255): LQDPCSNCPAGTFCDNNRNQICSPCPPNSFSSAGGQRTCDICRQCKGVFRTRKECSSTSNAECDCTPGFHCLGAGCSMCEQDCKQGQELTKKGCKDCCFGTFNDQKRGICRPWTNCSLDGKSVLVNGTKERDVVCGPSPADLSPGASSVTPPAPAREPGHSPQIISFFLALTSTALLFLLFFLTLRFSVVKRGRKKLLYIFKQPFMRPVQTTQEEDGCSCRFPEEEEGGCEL

## Urelumab: 4-1BB antibody included as a non-tumor targeting control
  4-1BB activation with and without tumor cells: activated 4-1BB with us without the presence of tumor cells
